The supplement of paper PMC7125110
± gives the standard error. This sample holds only a part of the variants without activity.

B1: glmS ribozyme (parent)
chain: AUAAAAGCGCCAGAACUACAGAAAUGUAGUUGACGAGGAGGAGGUUUAUCGAAUUUUCGGCGGAUGCCUCCAAA

Columns and labels:
Settings in all cases: with glucosamine-6-phosphate
glucosamine-6-phosphate [1] = variants of: B1; assay: self-cleavage kobs at 40 uM GlcN6P; higher = faster cleavage; RNA array
Procedure, shortened: (§1)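 Glucosamine-6-phosphate in HEPES/KCl/Mg(OAc)2 buffer, at 40 μM to 10 mM, was flowed over barcoded ribozyme variants transcribed in situ by E. coli RNA polymerase on sequenced MiSeq chips. Tracking was through a hybridised Cy3 probe at 37 °C. kobs, kcat and KM came from exponential decay fits and weighted Michaelis–Menten fits of normalised per-tile medians.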

glucosamine-6-phosphate [2] = variants of: B1; assay: self-cleavage kobs at 10000 uM GlcN6P; higher = faster cleavage; RNA array
Procedure, shortened: as §1

glucosamine-6-phosphate [3] = variants of: B1; assay: self-cleavage kobs at 640 uM GlcN6P; higher = faster cleavage; RNA array
Procedure, shortened: as §1

glucosamine-6-phosphate [4] = variants of: B1; assay: self-cleavage kobs at 2500 uM GlcN6P; higher = faster cleavage; RNA array
Procedure, shortened: as §1

glucosamine-6-phosphate [5] = variants of: B1; assay: self-cleavage kobs at 160 uM GlcN6P; higher = faster cleavage; RNA array
Procedure, shortened: as §1

Variant | self-cleavage kobs at 40 uM GlcN6P (glucosamine-6-phosphate [1]) [s⁻¹] | self-cleavage kobs at 10000 uM GlcN6P (glucosamine-6-phosphate [2]) [s⁻¹] | self-cleavage kobs at 640 uM GlcN6P (glucosamine-6-phosphate [3]) [s⁻¹] | self-cleavage kobs at 2500 uM GlcN6P (glucosamine-6-phosphate [4]) [s⁻¹] | self-cleavage kobs at 160 uM GlcN6P (glucosamine-6-phosphate [5]) [s⁻¹]
G35C U45C C67G C68A | 0.00152 ± 0.00042 | 0.000566 ± 0.00018 |  |  | 
C11G C34A A64C | < 1e-05 | < 1e-05 |  |  | 
A33G C50G G66U | 0.000106 ± 2.6e-05 | 5.3e-05 ± 2.2e-05 | 0.000115 ± 5.2e-05 | 0.000301 ± 0.0001 | 
A12C A64U C68G | < 1e-05 |  |  |  | 
C8U G13C G51A | < 1e-05 | < 1e-05 |  | < 1e-05 | 
C11U A33G G37U C71A | < 1e-05 | < 1e-05 |  |  | 
A15U A33U C61G | < 1e-05 |  |  |  | 
C16G A39G G51U U55A | < 1e-05 |  | < 1e-05 |  | 
G44C G51A | < 1e-05 | < 1e-05 | < 1e-05 | < 1e-05 | < 1e-05
G43U C58U | < 1e-05 | < 1e-05 | < 1e-05 |  | < 1e-05
G38A U57G | < 1e-05 | < 1e-05 | < 1e-05 | < 1e-05 | 
G7U A48U | < 1e-05 | < 1e-05 | < 1e-05 | < 1e-05 | < 1e-05
G44A U69G | < 1e-05 | < 1e-05 | < 1e-05 | < 1e-05 | 
U31A U55G | 0.000331 ± 5.6e-05 | 0.0123 ± 0.0044 | 0.0036 ± 0.00064 | 0.00546 ± 0.0012 | 0.000659 ± 9.3e-05
G7C U30G G35U G37U U57C C71G | < 1e-05 | < 1e-05 |  |  | 
A15C G62A | < 1e-05 | < 1e-05 | < 1e-05 | < 1e-05 | < 1e-05
G35A C50A G51A | < 1e-05 |  | < 1e-05 | < 1e-05 | 
U49A G63C U69C | < 1e-05 |  |  |  | 
C11G A36G C67U | < 1e-05 |  |  |  | 
G13U A48G U65C U69G | < 1e-05 |  |  |  | 
C11A A14C A36G C50U C58U C61G | 0.000206 ± 8.1e-05 |  |  |  | 
A14C A36C C61G | < 1e-05 |  |  |  | 
A15U G62U | < 1e-05 | < 1e-05 | < 1e-05 | < 1e-05 | 
C11G G43U A48U C61G A64G | < 1e-05 | < 1e-05 | < 1e-05 | < 1e-05 | 

Variant | self-cleavage kobs at 40 uM GlcN6P (glucosamine-6-phosphate [1]) [s⁻¹] | self-cleavage kobs at 10000 uM GlcN6P (glucosamine-6-phosphate [2]) [s⁻¹] | self-cleavage kobs at 640 uM GlcN6P (glucosamine-6-phosphate [3]) [s⁻¹] | self-cleavage kobs at 2500 uM GlcN6P (glucosamine-6-phosphate [4]) [s⁻¹] | self-cleavage kobs at 160 uM GlcN6P (glucosamine-6-phosphate [5]) [s⁻¹]
C34U A39G | < 1e-05 | < 1e-05 | < 1e-05 | < 1e-05 | < 1e-05
C16U A53C | 0.000147 ± 2.2e-05 | 0.00687 ± 0.0013 | 0.00248 ± 0.00046 | 0.00358 ± 0.00061 | 0.000234 ± 6.4e-05
C10A G41C A48C C58G | < 1e-05 |  |  |  | 
C10G U47A G60U C61U | < 1e-05 |  |  |  | 
A52G U54G C61G | < 1e-05 |  |  |  | 
A6U C10A G41C U46A C70A | < 1e-05 | < 1e-05 |  | < 1e-05 | 
A33U C50G C71G | 0.000128 ± 2.3e-05 | 0.0002 ± 4.2e-05 |  |  | 
G43C A52C U54G | < 1e-05 | < 1e-05 | < 1e-05 |  | 
C8G G43A G59A G60U | < 1e-05 |  |  |  | 
G9U G43C U46G C67A | < 1e-05 |  |  |  | 
C10U G62A | < 1e-05 | < 1e-05 | < 1e-05 |  | 
G29U G35A A48G A53C | < 1e-05 |  | < 1e-05 |  | 
A12G G37C U46C A53G C68U | < 1e-05 | < 1e-05 |  |  | 
C10U G40A C67A | < 1e-05 | < 1e-05 |  |  | 
C10A A12U | < 1e-05 |  |  |  | 
A39U A42G C67U | 0.000231 ± 6.2e-05 | 0.0241 ± 0.0085 |  | 0.00297 ± 0.00075 | 0.000536 ± 0.00015
G37C G44A | < 1e-05 | < 1e-05 | < 1e-05 |  | < 1e-05
A14G G44U A64U | < 1e-05 |  | < 1e-05 | < 1e-05 | 
C34A C58U | < 1e-05 | < 1e-05 | < 1e-05 | < 1e-05 | < 1e-05
C8G U31C C71A | < 1e-05 |  |  |  | 
G41U U57G | < 1e-05 |  | < 1e-05 |  | < 1e-05
A6C G29C A36G | < 1e-05 | < 1e-05 |  | < 1e-05 | < 1e-05
U30G U47C C70G | < 1e-05 | 7.72e-05 ± 2.2e-05 | 5.55e-05 ± 2e-05 | 0.000116 ± 2.6e-05 | 
